The experiment has as its target mouse CD147 (mouse) (UniProt P18572).

As to “Rat anti-mouse CD147 monoclonal antibody purified from the RL73.2 hybridoma”, the migration induced by CypA (Boyden chamber chemotaxis) of mouse neutrophils, monocytes and activated CD4+ T cells is > 90%.

The record behind these values is patent publication US20090258024A1.
